Test results from patent US20250154202A1 (published 2025).
Bridge positions count the residues as written; N and C are the ends. Square brackets hold non-standard residues; d marks the D form. Ends that are not written are not given here.

How the values were obtained:
[1] = target: anti-ALFA VHH; assay: dose-response curve fit (log(agonist) vs. response, variable slope), FIG. 2; assay format not described; unit from paragraph 98
[2] = target: anti-ALFA VHH; assay: dose-response curve fit (log(agonist) vs. response, variable slope), FIG. 2; assay format not described
[3] = target: T1, biotinylated NbALFA (NanoTag) (biotinylated (site not stated)); assay: SPR, Biacore T200, biotinylated NbALFA captured on Biotin CAPture chip, peptide as analyte, multi-cycle kinetics, 1:1 model, 25 C
T1 construct: Bought from NanoTag and captured on the SPR chip through biotin; also called NbALFA-nanobody; Nanobody
T1 sequence (VHH, as listed by the source): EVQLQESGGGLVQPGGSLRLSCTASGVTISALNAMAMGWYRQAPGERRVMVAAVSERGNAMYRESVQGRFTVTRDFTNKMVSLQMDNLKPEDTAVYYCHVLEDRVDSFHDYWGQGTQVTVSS
Procedure: Affinity measurements were performed using a Biacore T200 (GE Healthcare, Biacore T200 control Software 3.2). For affinity measurement, the Biotin CAPture kit, series S (Cytiva Europe, Cat. no. 28920234) was utilized. A freshly docked Biotin CAPture chip was rehydrated overnight in the instrument (standby mode). The following day, the chip surface was conditioned three times with regeneration solution (6 M guanidine-HCl, 0.25 M NaOH) for 60 s at 10 μL/min on flow cell (FC) 1 and FC2. Subsequently, the Biotin CAPture reagent (Cytiva Europe, Cat. no. 29423383) was applied for 300 s at 2 μL/min on FC1 and FC2, followed by capturing of 25 nM biotinylated NbALFA (NanoTag). The immobilization of the Nanobody was done for 180 s at 10 μL/min on FC2 followed by quenching of unbound streptavidin by 0.1 mM biocytin for 60 s and 30 μL/min on both flow cells. […] injections of 10 nM, 5 nM, 2.5 nM, 1.25 nM, 0.625 nM and 0 nM (blank control) of cyclic ALFA variants were performed over both flow cells for 120 s with a flow rate of 40 μL/min, followed by dissociation for 1500 s. After each cycle, the surface was regenerated for 120 s with 10 μL/min using regeneration solution. All measurements were performed at 25° C. using HBS-EP+ buffer (Cytiva Europe, Cat. no BR100669). The control responses from FC1 were subtracted by the sample measurement in FC2 (FC2−FC1) followed by subtraction of the 0 nM blank injection. Resulting binding curves of this multi cycle kinetic experiment were fitted using the Biacore T200 Evaluation Software 3.2 and a 1:1 binding model.

Chain of anti-ALFA VHH (VHH, as listed by the source): as above

Binder	EC50 [1]	Bottom [2]	LogEC50 [2]	Span [2]	Top [2]	Kd [3]	koff [3]	kon [3]
Ac-SRLEEELRKRLTE-NH2 (lactam 9-13; SMILES CC(=O)N[C@@H](CO)C(=O)N[C@@H](CCCNC(=N)N)C(=O)N[C@@H](CC(C)C)C(=O)N[C@@H](CCC(=O)O)C(=O)N[C@@H](CCC(=O)O)C(=O)N[C@@H](CCC(=O)O)C(=O)N[C@@H](CC(C)C)C(=O)N[C@@H](CCCNC(=N)N)C(=O)N[C@H]1CCCCNC(=O)CC[C@@H](C(N)=O)NC(=O)[C@H]([C@@H](C)O)NC(=O)[C@H](CC(C)C)NC(=O)[C@H](CCCNC(=N)N)NC1=O, Cyclic ALFA tag; also called SD15193) [Ac-Ser-Arg-Leu-Glu-Glu-Glu-Leu-Arg-(cyclo9)Lys-Arg-Leu-Thr-(cyclo13)Glu-NH2]	6.05 nM	0.145	0.782	1.29	1.44	0.0556 nM	0.00109 s⁻¹	1.95e+07 M⁻¹ s⁻¹
Ac-SRLEDELRKRLTE-NH2 (lactam 5-9; SMILES CC(=O)N[C@@H](CO)C(=O)N[C@@H](CCCNC(=N)N)C(=O)N[C@@H](CC(C)C)C(=O)N[C@@H](CCC(=O)O)C(=O)N[C@H]1CC(=O)NCCCC[C@@H](C(=O)N[C@@H](CCCNC(=N)N)C(=O)N[C@@H](CC(C)C)C(=O)N[C@H](C(=O)N[C@@H](CCC(=O)O)C(N)=O)[C@@H](C)O)NC(=O)[C@H](CCCNC(=N)N)NC(=O)[C@H](CC(C)C)NC(=O)[C@H](CCC(=O)O)NC1=O, Cyclic ALFA tag; also called SD15196) [Ac-Ser-Arg-Leu-Glu-(cyclo5)Asp-Glu-Leu-Arg-(cyclo9)Lys-Arg-Leu-Thr-Glu-NH2]	377 nM	0.0167	2.58	1.41	1.43	0.436 nM	0.0079 s⁻¹	1.81e+07 M⁻¹ s⁻¹
Ac-SRLEEELKRRLTE-NH2 (lactam 5-8; SMILES CC(=O)N[C@@H](CO)C(=O)N[C@@H](CCCNC(=N)N)C(=O)N[C@@H](CC(C)C)C(=O)N[C@@H](CCC(=O)O)C(=O)N[C@H]1CCC(=O)NCCCC[C@@H](C(=O)N[C@@H](CCCNC(=N)N)C(=O)N[C@@H](CCCNC(=N)N)C(=O)N[C@@H](CC(C)C)C(=O)N[C@H](C(=O)N[C@@H](CCC(=O)O)C(N)=O)[C@@H](C)O)NC(=O)[C@H](CC(C)C)NC(=O)[C@H](CCC(=O)O)NC1=O, Cyclic ALFA tag; also called SD15192) [Ac-Ser-Arg-Leu-Glu-(cyclo5)Glu-Glu-Leu-(cyclo8)Lys-Arg-Arg-Leu-Thr-Glu-NH2]	5.98 nM	0.152	0.776	1.2	1.35	0.0551 nM	0.000577 s⁻¹	1.05e+07 M⁻¹ s⁻¹
Ac-SRLEEELRRRLTE-NH2 (Linear ALFA tag; also called SD15197) [Ac-Ser-Arg-Leu-Glu-Glu-Glu-Leu-Arg-Arg-Arg-Leu-Thr-Glu-NH2]	2.6 nM	0.097	0.414	1.29	1.39	0.0117 nM	0.000593 s⁻¹	5.05e+07 M⁻¹ s⁻¹
SRLEEELRKRLTE (lactam 5-9; not fully specified (N-terminus, C-terminus), also called SD15194) [Ac-Ser-Arg-Leu-Glu-(cyclo5)Glu-Glu-Leu-Arg-(cyclo9)Lys-Arg-Leu-Thr-Glu-NH2]	5.97 nM	0.159	0.776	1.27	1.43	0.0376 nM	0.00067 s⁻¹	1.78e+07 M⁻¹ s⁻¹
Ac-PSRLEEELRKRLTE-NH2 (lactam 6-10; SMILES CC(=O)N1CCC[C@H]1C(=O)N[C@@H](CO)C(=O)N[C@@H](CCCNC(=N)N)C(=O)N[C@@H](CC(C)C)C(=O)N[C@@H](CCC(=O)O)C(=O)N[C@H]1CCC(=O)NCCCC[C@@H](C(=O)N[C@@H](CCCNC(=N)N)C(=O)N[C@@H](CC(C)C)C(=O)N[C@H](C(=O)N[C@@H](CCC(=O)O)C(N)=O)[C@@H](C)O)NC(=O)[C@H](CCCNC(=N)N)NC(=O)[C@H](CC(C)C)NC(=O)[C@H](CCC(=O)O)NC1=O, Cyclic ALFA tag; also called SD15341) [Ac-Pro-Ser-Arg-Leu-Glu-(cyclo6)Glu-Glu-Leu-Arg-(cyclo10)Lys-Arg-Leu-Thr-Glu-NH2]	–	–	–	–	–	0.0194 nM	0.000361 s⁻¹	1.86e+07 M⁻¹ s⁻¹
Ac-PSRLEKELRERLTE-NH2 (lactam 6-10; SMILES CC(=O)N1CCC[C@H]1C(=O)N[C@@H](CO)C(=O)N[C@@H](CCCNC(=N)N)C(=O)N[C@@H](CC(C)C)C(=O)N[C@@H](CCC(=O)O)C(=O)N[C@H]1CCCCNC(=O)CC[C@@H](C(=O)N[C@@H](CCCNC(=N)N)C(=O)N[C@@H](CC(C)C)C(=O)N[C@H](C(=O)N[C@@H](CCC(=O)O)C(N)=O)[C@@H](C)O)NC(=O)[C@H](CCCNC(=N)N)NC(=O)[C@H](CC(C)C)NC(=O)[C@H](CCC(=O)O)NC1=O, Cyclic ALFA tag; also called SD15805) [Ac-Pro-Ser-Arg-Leu-Glu-(cyclo6)Lys-Glu-Leu-Arg-(cyclo10)Glu-Arg-Leu-Thr-Glu-NH2]	–	–	–	–	–	0.103 nM	0.000964 s⁻¹	9.33e+06 M⁻¹ s⁻¹
Ac-PSRLEEELKRRLTE-NH2 (lactam 5-9; SMILES CC(=O)N1CCC[C@H]1C(=O)N[C@@H](CO)C(=O)N[C@@H](CCCNC(=N)N)C(=O)N[C@@H](CC(C)C)C(=O)N[C@H]1CCC(=O)NCCCC[C@@H](C(=O)N[C@@H](CCCNC(=N)N)C(=O)N[C@@H](CCCNC(=N)N)C(=O)N[C@@H](CC(C)C)C(=O)N[C@H](C(=O)N[C@@H](CCC(=O)O)C(N)=O)[C@@H](C)O)NC(=O)[C@H](CC(C)C)NC(=O)[C@H](CCC(=O)O)NC(=O)[C@H](CCC(=O)O)NC1=O, Cyclic ALFA tag; also called SD15806) [Ac-Pro-Ser-Arg-Leu-(cyclo5)Glu-Glu-Glu-Leu-(cyclo9)Lys-Arg-Arg-Leu-Thr-Glu-NH2]	–	–	–	–	–	1.43 nM	4.94 s⁻¹	3.44e+09 M⁻¹ s⁻¹
Ac-PSRLEEELR[dK]RLTE-NH2 (lactam 6-10; SMILES CC(=O)N1CCC[C@H]1C(=O)N[C@@H](CO)C(=O)N[C@@H](CCCNC(=N)N)C(=O)N[C@@H](CC(C)C)C(=O)N[C@@H](CCC(=O)O)C(=O)N[C@H]1CCC(=O)NCCCC[C@H](C(=O)N[C@@H](CCCNC(=N)N)C(=O)N[C@@H](CC(C)C)C(=O)N[C@H](C(=O)N[C@@H](CCC(=O)O)C(N)=O)[C@@H](C)O)NC(=O)[C@H](CCCNC(=N)N)NC(=O)[C@H](CC(C)C)NC(=O)[C@H](CCC(=O)O)NC1=O, Cyclic ALFA tag; also called SD15808) [Ac-Pro-Ser-Arg-Leu-Glu-(cyclo6)Glu-Glu-Leu-Arg-(cyclo10)dLys-Arg-Leu-Thr-Glu-NH2]	–	–	–	–	–	0.038 nM	0.000513 s⁻¹	1.35e+07 M⁻¹ s⁻¹
